Patent US20240151714A1 (AJOU UNIVERSITY INDUSTRY ACADEMIC COOPERATION FOUNDATION, published 2024)

How the values were obtained:
[1] = biological target: thrombin (ab62452; Abcam) (human, UniProt P00734 328-622); assay: PPR-based homogeneous assay, specificity test (trastuzumab-DNA1 with pertuzumab-DNA2)
Procedure: (§1) In a homogeneous assay to detect the target substance, samples were mixed with four conjugates (TEVP-first DNA′, BLZ-second DNA′, first binder-first DNA agent, second binder-second DNA) and […] CENTA™ (EMD Millipore, USA) in a reaction buffer (137 mM NaCl, 2.7 mM KCl, 10 mM Na₂HPO₄, 2 mM KH₂PO₄, 40 mM MgCl₂, 10 mM DTT, 0.5% (w/v) BSA, and pH 7.4). Hydrolysis of CENTA™ by β-lactamase was monitored by measuring absorbance (A₄₀₅) at 405 nm using a plate reader (synergy HT multi-detection reader; BioTek Instruments, USA) at 37° C. for 1 hour. The absorbance signal (ΔAbs=A₄₀₅ at 60 min−A₄₀₅ at 1 min) was plotted as a function of the concentration of the target substance. All experiments were performed at least three times and the limit of detection (LOD) was calculated as the sum of the mean ΔAbs of the blank and three times the standard deviation. In the competitive immunoassay for small molecule detection, an antibody against the target was further contained in the reaction solution. The following proteins were used as targets: HER2 (extracellular domain; 10004-H₀₈H; Sino Biological, China), cTnI protein (ab207624; Abcam, United Kingdom), thrombin (ab62452; Abcam), digoxigenin (D9026; Sigma, USA), digoxigenin polyclonal antibody (PA1-85378; Thermo Fisher Scientific, USA) and hCG monoclonal antibody (MA5-14680; Thermo Fisher Scientific).

[2] = biological target: T1, cTnI protein (ab207624; Abcam) (UniProt P19429 1-210, limits assumed); assay: as above
T1 construct: also called cardiac troponin I
T1 sequence (P19429 whole entry): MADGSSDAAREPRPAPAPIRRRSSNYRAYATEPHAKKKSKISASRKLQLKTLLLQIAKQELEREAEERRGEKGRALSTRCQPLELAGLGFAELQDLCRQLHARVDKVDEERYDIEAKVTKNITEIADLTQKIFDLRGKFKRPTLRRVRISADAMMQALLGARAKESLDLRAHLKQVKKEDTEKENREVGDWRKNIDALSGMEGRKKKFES
Procedure: as §1

B1: pertuzumab-second DNA conjugate (antibody, V domains shown)
VH: EVQLVESGGGLVQPGGSLRLSCAASGFTFTDYTMDWVRQAPGKGLEWVADVNPNSGGSIYNQRFKGRFTLSVDRSKNTLYLQMNSLRAEDTAVYYCARNLGPSFYFDYWGQGTLVTVSS
VL: DIQMTQSPSSLSASVGDRVTITCKASQDVSIGVAWYQQKPGKAPKLLIYSASYRYTGVPSRFSGSGSGTDFTLTISSLQPEDFATYYCQQYYIYPYTFGQGTKVEIKR
modifications: amine groups conjugated to amine-modified second DNA (SEQ ID NO: 2) via a bis-NHS ester linker; heterogeneous product, sites not stated
notes: IgG made in HEK293F cells and conjugated to ssDNA; also called pertuzumab-DNA2; P-D2
What does the source list for B1?
binding result [1]: no binding (tested: 10 nM); binding result [2]: no binding (tested: 10 nM)
